Earlier results, collected in article PMC4543363.

How the values were obtained:
[1] = target: NF-κB dimer (Homo sapiens) (UniProt P19838)
NF-κB p50 (Homo sapiens) = NF-κB p50 (Homo sapiens) (UniProt P19838)

| Kd [1] | Kd (NF-κB p50 (Homo sapiens)) | Substance |
| --- | --- | --- |
| < 0.1 nM | – | IκBα (from UniProt P25963) |
| – | 100 nM | NF-κB p65 (from UniProt Q04206) |
